Measured values: publication PMC6555833, “APC/C^CDH1 synchronizes ribose-5-phosphate levels and DNA synthesis to cell cycle progression” (Nature Communications, 2019)

T1: purified recombinant TKT (human, UniProt P29401 1-623)
T1 chain: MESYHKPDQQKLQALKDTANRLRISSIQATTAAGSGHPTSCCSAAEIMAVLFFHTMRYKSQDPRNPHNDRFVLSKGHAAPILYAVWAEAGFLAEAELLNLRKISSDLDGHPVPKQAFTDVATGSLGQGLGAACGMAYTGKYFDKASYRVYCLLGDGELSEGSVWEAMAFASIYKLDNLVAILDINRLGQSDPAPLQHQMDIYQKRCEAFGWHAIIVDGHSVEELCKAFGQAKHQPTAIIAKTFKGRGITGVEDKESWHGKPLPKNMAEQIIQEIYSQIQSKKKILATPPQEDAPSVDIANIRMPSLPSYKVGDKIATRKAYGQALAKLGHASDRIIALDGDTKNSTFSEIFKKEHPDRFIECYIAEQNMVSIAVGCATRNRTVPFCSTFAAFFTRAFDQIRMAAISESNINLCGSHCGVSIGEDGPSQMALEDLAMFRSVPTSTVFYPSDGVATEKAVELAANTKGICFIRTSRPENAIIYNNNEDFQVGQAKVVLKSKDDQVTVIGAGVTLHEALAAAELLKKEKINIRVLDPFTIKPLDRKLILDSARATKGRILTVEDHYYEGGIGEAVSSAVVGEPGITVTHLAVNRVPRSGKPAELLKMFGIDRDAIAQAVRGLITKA

B1: purified recombinant TKT (natural protein, human, UniProt P29401 1-623, looked up)
chain: T1 chain
notes: wild-type transketolase (TKT), human; in vector pSJ3; also called TKT homodimer; TKT-TKT; source: E. coli BL21 (DE3)pLysS, purified (nickel column)
B2: purified recombinant TKTL1 (natural protein, human, UniProt P51854 1-596, looked up)
chain: MADAEARAEFPEEARPDRGTLQVLQDMASRLRIHSIRATCSTSSGHPTSCSSSSEIMSVLFFYIMRYKQSDPENPDNDRFVLAKRLSFVDVATGWLGQGLGVACGMAYTGKYFDRASYRVFCLMSDGESSEGSVWEAMAFASYYSLDNLVAIFDVNRLGHSGALPAEHCINIYQRRCEAFGWNTYVVDGRDVEALCQVFWQASQVKHKPTAVVAKTFKGRGTPSIEDAESWHAKPMPRERADAIIKLIESQIQTSRNLDPQPPIEDSPEVNITDVRMTSPPDYRVGDKIATRKACGLALAKLGYANNRVVVLDGDTRYSTFSEIFNKEYPERFIECFMAEQNMVSVALGCASRGRTIAFASTFAAFLTRAFDHIRIGGLAESNINIIGSHCGVSVGDDGASQMALEDIAMFRTIPKCTIFYPTDAVSTEHAVALAANAKGMCFIRTTRPETMVIYTPQERFEIGQAKVLRHCVSDKVTVIGAGITVYEALAAADELSKQDIFIRVIDLFTIKPLDVATIVSSAKATEGRIITVEDHYPQGGIGEAVCAAVSMDPDIQVHSLAVSGVPQSGKSEELLDMYGISARHIIVAVKCMLLN
notes: wild-type transketolase-like protein 1 (TKTL1), human; in vector pSJ3; also called TKTL1 monomer; source: E. coli BL21 (DE3)pLysS, purified (nickel column)

Key:
[1] = target: the molecule itself; test: SPR; Biacore T200; TKT immobilised on a CM5 chip; constant of the TKT-TKT homodimer; the analyte series is not described
SPR = target: the molecule itself; test: SPR
[2] = target: the molecule itself; test: native gel or EMSA; native gel electrophoresis of TKT, TKTL1-TKT and TKTL1
purified recombinant TKT [3] = target: B1; test: SPR; Biacore T200; TKT amine-coupled to a CM5 chip in 10 mM sodium acetate pH 5.5; TKTL1 in a series of concentrations starting at 65.9 nM; PBS buffer; conditions: both partners purified
purified recombinant TKT [4] = target: T1, purified recombinant TKT; test: SPR

Kd (purified recombinant TKT [3]) | koff (purified recombinant TKT [4]) | Binder | Kd [1] | koff (SPR) | stoichiometry N [2]
– | – | B1 | 118 nM | 0.00777 s⁻¹ | 2
146 nM | 0.0044 s⁻¹ | B2 | – | – | –
